Measured values from PMC10014292.

Assays:
Details in all cases: glycan lost; control: wild type
[1] = cycloheximide chase, rate of YFP fluorescence decline
[2] = NFAT promoter activity with TRPC6 antagonist
[3] = whole-cell patch clamp, HEK-293T
[4] = Nppa, Rcan1 qPCR ± angiotensin II, rat cardiomyocytes

B1: TRPC6: T221A (protein)
parent chain: MSQSPAFGPRRGSSPRGAAGAAARRNESQDYLLMDSELGEDGCPQAPLPCYGYYPCFRGSDNRLAHRRQTVLREKGRRLANRGPAYMFSDRSTSLSIEEERFLDAAEYGNIPVVRKMLEECHSLNVNCVDYMGQNALQLAVANEHLEITELLLKKENLSRVGDALLLAISKGYVRIVEAILSHPAFAEGKRLATSPSQSELQQDDFYAYDEDGTRFSHDVTPIILAAHCQEYEIVHTLLRKGARIERPHDYFCKCNDCNQKQKHDSFSHSRSRINAYKGLASPAYLSLSSEDPVMTALELSNELAVLANIEKEFKNDYKKLSMQCKDFVVGLLDLCRNTEEVEAILNGDVETLQSGDHGRPNLSRLKLAIKYEVKKFVAHPNCQQQLLSIWYENLSGLRQQTMAVKFLVVLAVAIGLPFLALIYWFAPCSKMGKIMRGPFMKFVAHAASFTIFLGLLVMNAADRFEGTKLLPNETSTDNAKQLFRMKTSCFSWMEMLIISWVIGMIWAECKEIWTQGPKEYLFELWNMLDFGMLAIFAASFIARFMAFWHASKAQSIIDANDTLKDLTKVTLGDNVKYYNLARIKWDPSDPQIISEGLYAIAVVLSFSRIAYILPANESFGPLQISLGRTVKDIFKFMVIFIMVFVAFMIGMFNLYSYYIGAKQNEAFTTVEESFKTLFWAIFGLSEVKSVVINYNHKFIENIGYVLYGVYNVTMVIVLLNMLIAMINSSFQEIEDDADVEWKFARAKLWFSYFEEGRTLPVPFNLVPSPKSLFYLLLKLKKWISELFQGHKKGFQEDAEMNKINEEKKLGILGSHEDLSKLSLDKKQVGHNKQPSIRSSEDFHLNSFNNPPRQYQKIMKRLIKRYVLQAQIDKESDEVNEGELKEIKQDISSLRYELLEEKSQNTEDLAELIRELGEKLSMEPNQEETNR
For B1, the degradation_or_half_life [1] was “decreases”, the “other: antagonist sensitivity” value [2] was “no change” and the “other: channel current, other: percent increase in current” value [3] was “increases”. The “other: response to angiotensin II” value [4] was “no change”.
